Molecular target: Lathyrus sativus β-L-ODAP synthase (LsBOS), N-terminal His-tag (Lathyrus sativus)
Assay: SPR; Biacore 8K, CM5 chip; LsBOS amine-coupled (~1700 response), LsAAE3 as analyte; single cycle kinetics at 2.4, 12, 60, 300 and 1500 nM; 10 mM Hepes pH 7.4, 150 mM NaCl, 0.05 % tween 20, 25 °C; simple Langmuir binding model

Kd: 98 nM
koff: 0.000361 s⁻¹
kon: 3670 M⁻¹ s⁻¹
stoichiometry N: 1
Substance: Lathyrus sativus acyl-activating enzyme 3 (LsAAE3), N-terminal His-tag

— PMC9935904
